Measurements taken from publication PMC5147862 (PLoS ONE, 2016).

B1: RRAS2 (or TC21), mGppNHp-bound (natural protein, human, UniProt P62070 1-204, looked up)
chain: MAAAGWRDGSGQEKYRLVVVGGGGVGKSALTIQFIQSYFVTDYDPTIEDSYTKQCVIDDRAARLDILDTAGQEEFGAMREQYMRTGEGFLLVFSVTDRGSFEEIYKFQRQILRVKDRDEFPMILIGNKADLDHQRQVTQEEGQQLARQLKVTYMEASAKIRMNVDQAFHELVRVIRKFQEQECPPSPEPTRKEKDKKGCHCVIF
notes: human RRAS2 (TC21); Loaded with mGppNHp; That the RAS proteins are the ones made with pGEX is surmised; also called RRAS2-mGppNHp
B2: RRAS1, mGppNHp-bound (natural protein, human, UniProt P10301 1-218, looked up)
chain: MSSGAASGTGRGRPRGGGPGPGDPPPSETHKLVVVGGGGVGKSALTIQFIQSYFVSDYDPTIEDSYTKICSVDGIPARLDILDTAGQEEFGAMREQYMRAGHGFLLVFAINDRQSFNEVGKLFTQILRVKDRDDFPVVLVGNKADLESQRQVPRSEASAFGASHHVAYFEASAKLRLNVDEAFEQLVRAVRKYQEQELPPSPPSAPRKKGGGCPCVLL
notes: human RRAS1 (R-Ras); Loaded with mGppNHp; That the RAS proteins are the ones made with pGEX is surmised

Experiments:
Assay in all cases: fluorescence polarisation; MBP-tagged effector domain (0.05-100 μM) titrated to 1 μM RAS-mGppNHp; 50 mM Tris/HCl pH 7.5, 100 mM NaCl, 5 mM MgCl2, 3 mM dithiothreitol, 25°C; quadratic ligand binding equation
Conditions in all cases: both partners purified
RRAS1, mGppNHp-bound = biological target: B2
[1] = biological target: B1
[2] = biological target: T1, RAS binding (RB) domain of PI3Kα, MBP fusion (human, UniProt P42336 169-301)
T1 construct: human PI3Kα, RB domain, aa 169-301; also called PI3Kα-RB
T1 sequence (P42336 169-301): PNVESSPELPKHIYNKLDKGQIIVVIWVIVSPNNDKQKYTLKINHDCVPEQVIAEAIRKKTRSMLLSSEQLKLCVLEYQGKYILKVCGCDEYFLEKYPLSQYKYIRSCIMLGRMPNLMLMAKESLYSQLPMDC

HRAS, mGppNHp-bound = biological target: T2, HRAS, mGppNHp-bound (human, UniProt P01112 1-189)
T2 construct: human HRAS; Loaded with the fluorescent non-hydrolysable GTP analog mant-GppNHp (mGppNHp); That the RAS proteins are the ones made with pGEX is surmised

NRAS, mGppNHp-bound = biological target: T3, NRAS, mGppNHp-bound (human, UniProt P01111 1-189)
T3 construct: human NRAS; Loaded with mGppNHp; That the RAS proteins are the ones made with pGEX is surmised
T3 sequence (P01111 whole entry): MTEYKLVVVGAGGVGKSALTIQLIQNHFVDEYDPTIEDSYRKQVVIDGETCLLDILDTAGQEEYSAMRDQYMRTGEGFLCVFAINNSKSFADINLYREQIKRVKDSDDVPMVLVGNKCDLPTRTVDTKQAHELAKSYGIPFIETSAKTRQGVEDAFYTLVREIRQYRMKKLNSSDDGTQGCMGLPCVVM

Row | Kd (RRAS1, mGppNHp-bound) [µM] | Kd [1] [µM] | Kd [2] [µM] | Kd (HRAS, mGppNHp-bound) [µM] | Kd (NRAS, mGppNHp-bound) [µM] | Binder
1 | 114 | 145 |  |  |  | RAS association (RA) domain of PLCε, MBP fusion (domain or fragment, human, UniProt Q9P212 2130-2240, looked up, human PLCε, RA domain (RA2), aa 2130-2240; also called PLCε-RA2) LSSEEESFFVQVHDVSPEQPRTVIKAPRVSTAQDVIQQTLCKAKYSYSILSNPNPSDYVLLEEVVKDTTNKKTTTPKSSQRVLLDQECVFQAQSKWKGAGKFILKLKEQVQ
2 |  |  | 18.1 |  |  | B1
3 | 11.5 | 10 |  | 0.238 | 0.442 | RAS association (RA) domain of RASSF5, MBP fusion (domain or fragment, human, UniProt Q8WWW0 200-358, looked up, human RASSF5, RA domain, aa 200-358; also called RASSF5-RA) EETQRPPTLQEIKQKIDSYNTREKNCLGMKLSEDGTYTGFIKVHLKLRRPVTVPAGIRPQSIYDAIKEVNLAATTDKRTSFYLPLDAIKQLHISSTTTVSEVIQGLLKKFMVVDNPQKFALFKRIHKDGQVLFQKLSIADRPLYLRLLAGPDTEVLSFV
4 |  |  | 11 |  |  | B2
